# B1: Pox4p: native acyl-CoA oxidase isozyme of Candida strain ATCC20336 (protein, UniProt P06598 2-709, looked up)
# Acyl-coenzyme A oxidase 4: TFTKKNVSVSQGPDPRSSIQKERDSSKWNPQQMNYFLEGSVERSELMKALAQQMERDPILFTDGSYYDLTKDQQRELTAVKINRIARYREQESIDTFNKRLSLIGIFDPQVGTRIGVNLGLFLSCIRGNGTTSQLNYWANEKETADVKGIYGCFGMTELAHGSNVAGLETTATFDKESDEFVINTPHIGATKWWIGGAAHSATHCSVYARLIVDGQDYGVKTFVVPLRDSNHDLMPGVTVGDIGPKMGRDGIDNGWIQFSNVRIPRFFMLQKFCKVSAEGEVTLPPLEQLSYSALLGGRVMMVLDSYRMLARMSTIALRYAIGRRQFKGDNVDPNDPNALETQLIDYPLHQKRLFPYFVPPMSSPSVPSRLNTPSRPPWSNWTSPLKRTTPRLIFKSIDDMKSLFVDSGSLKSTATWLGAEAIDQCRQACGGHGHSSYNGFGKAYNDWVVQCTWEGDNNVLGMSVGKPIVKQVISIEDAGKTVRGSTAFLNQLKEYTGSNSSKVVLNTVADLDDIKTVIKAIEVAIIRLSQEAASIVKKESFDYVGAELVQLSKLKAHHYLLTEYIRRIDTFDQKELAPYLITLGKLYAATIVLDRFAGVFLTFNVASTEAITALASVQIPKLCAEVRPNVVAYTDSFQQSDMIVNSAIGRYDGDIYENYFDLVKLQNPPSKTKAPYSDALEAMLNRPTLDERERFQKSDETAAILSK
# Target: T1, Pox4 (Candida tropicalis, UniProt P06598)
# T1 construct: made in house; host or cells: E. coli Rosetta II BL21, pET26b; crude cell lysate (10 ug per reaction)
# Assay type: biochemical, Candida strain ATCC20336
# Settings: native isozyme
# Procedure: To express an enzyme, a colony from each transformation of Rosetta cells was used to start a 5 ml overnight culture of LB containing the antibiotics kanamycin (to select for pET26b) and chloramphenicol (to select for a second plasmid found in Rosetta II cells that mediates improved translation of eukaryotic proteins expressed in E. coli) grown at 37° C. The next morning, the overnight culture was used to seed 30 ml of LB containing kanamycin and chloramphenicol to an OD600 reading of 0.1. The 30 ml cultures were grown at 37° C. for 2 hours and then placed on ice for 10 minutes. To induce expression, isopropyl-beta-D-thiogalactopyranoside (IPTG) was added to the culture to a final concentration of 0.1 mM. In some cases induction was performed using Novagen Overnight Express Autoinduction System 1 (CAT#71300-3). The cells were then shaken at 15° C. overnight to express the acyl CoA oxidase.
# To test the activity of the acyl CoA oxidase, cells from the overnight induction were pelleted at 1046×g at 4° C. in 50 ml conical tubes. The cell pellets were resuspended in 1 ml of 50 mM KPO4, pH 7.6, 50 μM FAD buffer and then transferred to a 2 ml centrifuge tube. A Misonix Sonicator 3000 (QSonica, Newtown, Conn.) was used to lyse the cells, which were sonicated at a power setting of 2 for 2 pulses of 20 seconds each. […] The spectrophotometer was set to read for 5 minutes at 500 nm, 30° C. […]
molecule,measurement,value
B1,substrate specificity,broad substrate specificity

# Source: US9765346B2, “Biological methods for preparing a fatty dicarboxylic acid” (Verdezyne, Inc., priority 2011, dated 2017)
